In patent publication US20140286957A1 (Teva, published 2014):
Where two headings read alike, the source gives them in different places.

Assays:
Human CD1d/β2M [1] = target: T1, Human CD1d/β2M (human, UniProt P15813 20-301; P61769 21-119); experiment: SPR
T1 construct: also called hCD1d; recombinant human CD1d

Human CD1d on cells [2] = target: T2, Human CD1d on cells (human, UniProt P15813 20-335); experiment: cell-based or functional assay
T2 sequence (looked up): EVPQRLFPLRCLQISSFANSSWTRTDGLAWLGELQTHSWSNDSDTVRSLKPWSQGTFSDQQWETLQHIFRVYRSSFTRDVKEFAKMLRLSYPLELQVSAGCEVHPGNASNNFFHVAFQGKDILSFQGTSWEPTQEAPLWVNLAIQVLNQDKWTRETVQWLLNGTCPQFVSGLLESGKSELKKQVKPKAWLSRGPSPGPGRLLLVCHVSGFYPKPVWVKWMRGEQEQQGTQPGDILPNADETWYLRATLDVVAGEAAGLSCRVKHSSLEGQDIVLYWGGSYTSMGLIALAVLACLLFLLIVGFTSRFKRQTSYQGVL

Human CD1d/β2M [3] = target: T1, Human CD1d/β2M; experiment: SPR, transfection supernatant
Human CD1d on cells [4] = target: T2, Human CD1d on cells; experiment: cell-based or functional assay; remark: listed apart in the source
Human CD1d on cells [5] = target: T2, Human CD1d on cells; experiment: cell-based or functional assay; remark: listed apart in the source
Human CD1d on cells [6] = target: T2, Human CD1d on cells; experiment: cell-based or functional assay; remark: listed apart in the source

B1: 401.11.155 (antibody, IgG4, V domains shown)
VH: EVQLVESGGGLVQPGRSLRLSCAASGFTFDDYAMHWVRQAPGKGLEWVATIIWNSAIIGYADSVKGRFIVSRDNAKNSLYLQMNSLRAEDMALYYCAKDMCSSSGCPDGYFDSWGQGTLVTVSS
VL: DIQMTQSPSSVSASVGDRVTITCRASQHISSWLAWYQQKPGKAPKLLIYAASSLQSGVPSRFSGSGSGTDFTLTISSLQPEDFATYYCQQANRFPLTFGGGTKLEIKR
notes: IgG4 (S228P)
Human CD1d/β2M [1]
  Kd: 2.42 nM
Human CD1d on cells [2]
  NKT IL-4 EC50 (moDC): 27.6 ng/mL
  NKT IL-13 EC50 (moDC): 74.7 ng/mL

B2: 401.11.19 (antibody, V domains shown)
VH: QVQLVGSGGGLVKPGRSLRLSCAASGFTFDDYAMHWVRQAPGKGLEWVATIIWNSAIIGYADSVKGRFIVSRDNAKNSLYLQMNSLRAEDMALYYCAKDMCSSSGCPDGYFDSWGQGTLVTVSS
VL: DIQMTQSPSSVSASVGDRVTITCRASQHISSWLAWYQQKPGKAPKLLIYAASSLQSGVSSRFSGSGSGTDFTLTISSLQPEDFATYYCQQANRFPLTFGGGTKLEIK
Human CD1d/β2M [3]
  Kd: 0.667 nM

B3: 401.11.15 (antibody, V domains shown)
VH: EVQLVESGGGLVKPGRSLRLSCAASGFTFDDYAMHWVRQAPGKGLEWVATIIWNSAIIGYADSVKGRFIVSRDNAKNSLYLQMNSLRAEDMALYYCAKDMCSSSGCPDGYFDSWGQGTLVTVSS
VL: DIQMTQSPSSVSASVGDRVTITCRASQHISSWLAWYQQKPGKAPNLLIYAASSLQSGVSSRFSGSGSGTDFTLTISSLQPEDFATYYCQQANRFPLTFGGGTKLEIK
Human CD1d/β2M [3]
  Kd: 0.507 nM

B4: 401.11.18 (antibody, V domains shown)
VH: QVQLVGSGGGLVKPGRSLRLSCAASGFTFDDYAMHWVRQAPGKGLEWVATIIWNSAIIGYADSVKGRFIVSRDNAKNSLYLQMNSLRAEDTALYYCAKDMCSSSGCPDGYFDSWGQGTLVTVSS
VL: DIQMTQSPSSVSASVGDRVTITCRASQHISSWLAWYQQKPGKAPNLLIYAASSLQSGVSSRFSGSGSGTDFTLTISSLQPEDFATYYCQQANRFPLTFGGGTKLEIK
Human CD1d/β2M [3]
  Kd: 9.97 nM

B5: 401.11.157 (antibody, IgG4, V domains shown)
VH: QVQLVGSGGGLVKPGRSLRLSCAASGFTFDDYAMHWVRQAPGKGLEWVATIIWNSAIIGYADSVKGRFIVSRDNAKNSLYLQMNSLRAEDTALYYCAKDMCSSGGCPDGYFDSWGQGTLVTVSS
VL: DIQMTQSPSSVSASVGDRVTITCRASQHISSWLAWYQQKPGKAPNLLIYAASSLQSGVPSRFSGSGSGTDFTLTISSLQPEDFATYYCQQANRFPLTFGGGTKLEIKR
notes: IgG4 (S228P)
Human CD1d/β2M [1]
  Kd: 0.173 nM
Human CD1d on cells [2]
  NKT IL-4 EC50 (moDC): 0.799 ng/mL
  NKT IL-13 EC50 (moDC): 3.87 ng/mL
Human CD1d on cells [4]
  NKT IFN-γ EC50 (moDC): 9.11 ng/mL
  NKT IL-4 EC50 (moDC): 3.44 ng/mL
  NKT IL-5 EC50 (moDC): 8.49 ng/mL
  NKT IL-13 EC50 (moDC): 20.6 ng/mL
  NKT TNF EC50 (moDC): 5.59 ng/mL
Human CD1d on cells [5]
  NKT IFN-γ EC50 (THP-1): 5.45 ng/mL
  NKT IL-4 EC50 (THP-1): 1.81 ng/mL
  NKT IL-5 EC50 (THP-1): 4.48 ng/mL
  NKT IL-13 EC50 (THP-1): 6.98 ng/mL
  NKT TNF EC50 (THP-1): 3.54 ng/mL

B6: 401.11.22 (antibody, V domains shown)
VH: EVQLVESGGGLVQPGRSLRLSCAASGFTFDDYAMHWVRQAPGKGLEWVATIIWNSAIIGYADSVKGRFIVSRDNAKNSLYLQMNSLRAEDMALYYCAKDMCSSSGCPDGYFDSWGQGTLVTVSS
VL: DIQMTQSPSSVSASVGDRVTITCRASQHISSWLAWYQQKPGKAPKLLIYAASSLQSGVSSRFSGSGSGTDFTLTISSLQPEDFATYYCQQANRFPLTFGGGTKLEIK
Human CD1d/β2M [3]
  Kd: 0.754 nM

B7: 401.11.161 (antibody, IgG4, V domains shown)
VH: EVQLVESGGGLVQPGRSLRLSCAASGFTFDDYAMHWVRQAPGKGLEWVATIIWNSAIIGYADSVKGRFIVSRDNAKNSLYLQMNSLRAEDMALYYCAKDMCSSGGCPDGYFDSWGQGTLVTVSS
VL: DIQMTQSPSSVSASVGDRVTITCRASQHISSWLAWYQQKPGKAPKLLIYAASSLQSGVPSRFSGSGSGTDFTLTISSLQPEDFATYYCQQANRFPLTFGGGTKLEIKR
notes: IgG4 (S228P)
Human CD1d/β2M [1]
  Kd: 0.255 nM
Human CD1d on cells [2]
  NKT IL-4 EC50 (moDC): 5.24 ng/mL
  NKT IL-13 EC50 (moDC): 8.38 ng/mL

B8: 401.11.21 (antibody, V domains shown)
VH: EVQLVESGGGLVKPGRSLRLSCAASGFTFDDYAMHWVRQAPGKGLEWVATIIWNSAIIGYADSVKGRFIVSRDNAKNSLYLQMNSLRAEDMALYYCAKDMCSSSGCPDGYFDSWGQGTLVTVSS
VL: DIQMTQSPSSVSASVGDRVTITCRASQHISSWLAWYQQKPGKAPKLLIYAASSLQSGVSSRFSGSGSGTDFTLTISSLQPEDFATYYCQQANRFPLTFGGGTKLEIK
Human CD1d/β2M [3]
  Kd: 0.951 nM

B9: 401.11.20 (antibody, V domains shown)
VH: QVQLVGSGGGLVKPGRSLRLSCAASGFTFDDYAMHWVRQAPGKGLEWVATIIWNSAIIGYADSVKGRFIVSRDNAKNSLYLQMNSLRAEDMALYYCAKDMCSSSGCPDGYFDSWGQGTLVTVSS
VL: DIQMTQSPSSVSASVGDRVTITCRASQHISSWLAWYQQKPGKAPNLLIYAASSLQSGVPSRFSGSGSGTDFTLTISSLQPEDFATYYCQQANRFPLTFGGGTKLEIK
Human CD1d/β2M [3]
  Kd: 0.977 nM

B10: 401.11.16 (antibody, V domains shown)
VH: EVQLVESGGGLVQPGRSLRLSCAASGFTFDDYAMHWVRQAPGKGLEWVATIIWNSAIIGYADSVKGRFIVSRDNAKNSLYLQMNSLRAEDMALYYCAKDMCSSSGCPDGYFDSWGQGTLVTVSS
VL: DIQMTQSPSSVSASVGDRVTITCRASQHISSWLAWYQQKPGKAPNLLIYAASSLQSGVSSRFSGSGSGTDFTLTISSLQPEDFATYYCQQANRFPLTFGGGTKLEIK
Human CD1d/β2M [3]
  binding result: no binding

B11: 401.11.160 (antibody, IgG4, V domains shown)
VH: EVQLVESGGGLVQPGRSLRLSCAASGFTFDDYAMHWVRQAPGKGLEWVATIIWNSAIIGYADSVKGRFIVSRDNAKNSLYLQMNSLRAEDMALYYCAKDMCSSGGCPDGYFDSWGQGTLVTVSS
VL: DIQMTQSPSSVSASVGDRVTITCRASQHISSWLAWYQQKPGKAPNLLIYAASSLQSGVPSRFSGSGSGTDFTLTISSLQPEDFATYYCQQANRFPLTFGGGTKLEIKR
notes: IgG4 (S228P)
Human CD1d/β2M [1]
  Kd: 0.109 nM
Human CD1d on cells [2]
  NKT IL-4 EC50 (moDC): 1.56 ng/mL
  NKT IL-13 EC50 (moDC): 6.52 ng/mL

B12: 401.11.156 (antibody, IgG4, V domains shown)
VH: QVQLVGSGGGLVKPGRSLRLSCAASGFTFDDYAMHWVRQAPGKGLEWVATIIWNSAIIGYADSVKGRFIVSRDNAKNSLYLQMNSLRAEDTALYYCAKDMCSSGGCPDGYFDSWGQGTLVTVSS
VL: DIQMTQSPSSVSASVGDRVTITCRASQHISSWLAWYQQKPGKAPKLLIYAASSLQSGVSSRFSGSGSGTDFTLTISSLQPEDFATYYCQQANRFPLTFGGGTKLEIKR
notes: IgG4 (S228P)
Human CD1d/β2M [1]
  Kd: 0.223 nM
Human CD1d on cells [6]
  fold improvement against 401.11 (IFN-γ, moDC): ~5.1 fold
Human CD1d on cells [2]
  NKT IL-4 EC50 (moDC): 1.95 ng/mL
  NKT IL-13 EC50 (moDC): 5.22 ng/mL
Human CD1d on cells [4]
  NKT IFN-γ EC50 (moDC): 7.76 ng/mL
  NKT IL-4 EC50 (moDC): 2.72 ng/mL
  NKT IL-5 EC50 (moDC): 5.86 ng/mL
  NKT IL-13 EC50 (moDC): 9.53 ng/mL
  NKT TNF EC50 (moDC): 4.51 ng/mL
Human CD1d on cells [5]
  NKT IFN-γ EC50 (THP-1): 5.81 ng/mL
  NKT IL-4 EC50 (THP-1): 1.99 ng/mL
  NKT IL-5 EC50 (THP-1): 4.45 ng/mL
  NKT IL-13 EC50 (THP-1): 6.91 ng/mL
  NKT TNF EC50 (THP-1): 3.85 ng/mL
